Reference: patent publication US20250215091A1, “Anti-GAL3 Antibodies and Compositions” (Les Laboratoires Servier, priority 2022, published 2025)

Assays:
[1] = tested on: murine model of HOCI-induced fibrosis; experiment: HOCI-induced murine fibrosis model: skin and lung collagen (Picrosirius red); assay type: in vivo, mice; settings: first experiment
Experimental: (§1) In a first experiment, control mice (n=12) received a daily intradermal injection of 300 μL of sterile phosphate buffer saline (PBS) for 5 consecutive days per week, for a duration of 42 days. HOCI alone and HOCI with antibody (HOCI-antibody) treated mice (n=12 per group) received a daily intradermal injection of 300 μL of HOCI for 5 consecutive days per week, for a duration of 42 days. Antibody-treated mice also received a subcutaneous injection of 20 mg/kg antibody, starting at day minus one and every 5 days between day 5 and day 40. Each antibody was solubilized in sterile, endotoxin-free PBS before injection. In a second experiment, the same protocol was applied, except that duration of the study was 63 days and antibodies were given every 7 days starting at day minus 1 until day 62.
(§2) Mice that received daily injection of HOCI were also treated by intratracheal instillation of 0.5 mg/kg of TD139 compound (HOCI-TD139), a small molecule Gal3 inhibitor. In a first experiment, the administrations started from day 21 and the compound was given every 3 days until day 39. In a second experiment, the administrations started from day 20 and the compound was given every 3 days until day 62. TD139 was initially dissolved in 100% DMSO then diluted 50-fold in endotoxin-free PBS before administration.
At the day of study termination of the first experiment (day 42), skin and lung samples were taken, formalin-fixed and processed to individual paraffin wax blocks. Sections of skin and lung were cut from the blocks and, after rehydration, stained with Picrosirius Red coloration according to the manufacturer's protocol. Subsequently, each slide was examined and remotely analyzed employing the web-based Image J software

[2] = tested on: genes differentially regulated between HOCI group and control group in whole blood cells; experiment: HOCI-induced murine fibrosis model: whole blood RNA sequencing; assay type: in vivo, mice; settings: of 510 genes differentially regulated HOCI vs control; day 42, whole blood
Experimental: as §1, §2
In the first experiment, global gene expression was examined at day 42 in whole blood cells by RNA sequencing.
Whole blood was collected in RNA protect tubes (Qiagen) and were processed for RNA extraction using the RNeasy Protect Animal blood kit with the optional on-column DNAse I digestion. Total RNA samples were quantified on Nanodrop 2000 (ThermoFisher Scientific™) and analyzed on Bioanalyzer (Agilent) using RNA 6000 Nano chips to determine RNA quality (RIN). Total RNA matching the QC criteria were included in the study. Purified RNA samples were used as input for the TruSeq Strand-specific RNA-seq (poly A selection and globin depletion) according to manufacturer's protocol (Illumina). […]
Raw reads were processed using the in-house RNAExp Expression pipeline 2.1 and the quality was assessed using FastQC tools. Then, reads were trimmed for adaptors using Cutadapt and trimmed reads were aligned to mouse mm39 reference genome using the STAR aligner. Aligned data were evaluated for quality using Samtools and Picard tools. Then, aligned reads per gene were quantified using FeatureCount. […] Read count were normalized by the variance stabilizing transformation vst function from DESeq2 R package.
55,416 genes were detected in the data. […] Genes differentially expressed between groups were determined using a linear model (ImFit function from limma R package) on vst transformation gene expression dataset. […]

rat model of ARDS [3] = experiment: Rat ARDS model (LPS challenge): neutrophils counts in BALF; assay type: in vivo; settings: antibodies 14 mg/kg x3 prior to LPS; dexamethasone 10 mg/kg oral; vs LPS group; FIG. 16
How it was run: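 Rats dosed with antibody 14 mg/kg or PBS on days −11, −6 and −1, then LPS 0.25 mg/kg subcutaneously on day 1; reference group got oral dexamethasone 10 mg/kg 2 h before LPS. Neutrophils counted in bronchoalveolar lavage fluid.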

plasma IL-6 = experiment: HOCI-induced murine fibrosis model: plasma IL-6 (MSD); assay type: in vivo, mice; settings: first experiment, day 42; vs HOCI group; FIG. 9
Experimental: as §1, §2
(§3) In the first experiment, a mixed effect model with repeated measurements was performed on Control group, HOCI treated group, HOCI-antibody- and HOCI-TD139-treated groups. The impact of HOCI administration on plasma IL-6 and IL-5 levels was evaluated compared to the control group. The impact of antibody and TD139 treatments was compared to the HOCI group (FIG. 9). IL-6 and IL-5 were quantified by using the MSD technology from Mesoscale.

plasma IL-5 = experiment: HOCI-induced murine fibrosis model: plasma IL-5 (MSD); assay type: in vivo, mice; settings: first experiment, day 42; vs HOCI group; FIG. 9
Experimental: as §1, §2, §3

plasma TNF alpha = experiment: Rat ARDS model (LPS challenge): plasma TNF alpha (MSD); assay type: in vivo; settings: 4 h following LPS challenge; vs LPS group; FIG. 18
How it was run: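 Rats given anti-Gal3 antibodies (14 mg/kg in PBS) or PBS on days −11, −6 and −1, then challenged with LPS 0.25 mg/kg s.c. on day 1; dexamethasone 10 mg/kg p.o. 2 h pre-LPS as reference. Plasma sampled 4 h post-LPS; TNF alpha quantified by MSD.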

rat model of ARDS [4] = experiment: Rat ARDS model (LPS challenge): total BALF protein (BCA assay); assay type: in vivo; settings: antibodies 14 mg/kg x3 prior to LPS; dexamethasone 10 mg/kg oral; vs LPS group; FIG. 17
How it was run: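 Rats dosed with antibody at 14 mg/kg (in sterile PBS) or PBS on days −11, −6 and −1, then LPS 0.25 mg/kg s.c. on day 1; dexamethasone 10 mg/kg oral 2 h before LPS as reference. Total protein in BALF quantified by BCA assay, compared with the LPS + PBS group.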

B1: E07: anti-Gal3 monoclonal antibody, IgG1 format; VH SEQ ID NO 42, VL SEQ ID NO 43 (antibody, V domains shown)
VH: EVQLVESGGSLVKPGGSLRLSCAASGFTFSNYNMNWVRQAPGKGLEWISNIYGSSRYIYYADFVKGRFTISRDNAKNSLYLQMNSLRAEDTAVYYCVRSYYGGMDVWGRGTLVTVSS
VL: QSVLTQPASVSGSPGQSITISCAGTSSDVGGYYSVSWYQQHPGKAPKLMIYYDSNRPSGVSNRFSGSKSGNTASLTISGLQAEDEADYYCSSYTGYSTRVFGGGTKLEIK
With B1 the lung collagen levels ([1]; day 42, FIG. 8A) was “restored lung collagen levels to those of control mice, reaching statistical significance”, the skin collagen levels ([1]; day 42, vs HOCI group, FIG. 8B) was “non significant downward trend” and the “number of HOCI-dysregulated genes counteracted by treatment” value [2] was 445 genes. The “percentage of HOCI-dysregulated genes counteracted by treatment” value [2] was 87.2%, the “neutrophils counts in BALF” value (rat model of ARDS [3]) was “also decreased” and the “plasma IL-6 levels” value (plasma IL-6) was “significantly decreased the plasma IL-6 levels to values similar to those of control mice”. For the same molecule, the “plasma IL-5 levels” value (plasma IL-5) was “decreased significantly”, the “TNF alpha plasma levels” value (plasma TNF alpha) was “also decreased, displaying an intermediary profile” and the “total BALF protein” value (rat model of ARDS [4]) was “also decreased with a statistic significance”.
